In assay [1] the test system is B16F10.9 cells (MSR1 negative). Description: Flow cytometry binding, MSR1 negative cells. To be noted: 10 μg/mL antibody. The assay is classed as cell-based, mouse. The protocol: Relative cell surface binding of the anti-MSR1 antibodies to mouse MSR1 expressing cells was determined by flow cytometry using MSR1 positive RAW264.7 cells (ATCC, Catalog #TIB-71) and MSR1 negative B16F10.9 cells (Lin et al. 1998. PNAS 95:8829-8834). For the assay, cells were plated in PBS without calcium and magnesium (VWR Cat #45000-446) and 2% FBS (Saradigm Cat #1500-500) (Staining Buffer) in 96 well V-bottom plates (Axygen Scientific, Cat #P-96-450-V-C-S). To block binding to Fc receptors, RAW264.7 cells were incubated for 30 minutes at 4° C. with 500 μg/mL mouse IgG (Jackson ImmunoResearch, Cat #015-000-003) diluted in staining buffer, while B16F10.9 cells remained in staining buffer. Following Fc receptor blocking, 10 μg/mL of anti-MSR1 antibodies or an isotype control antibody were added to the cells and were subsequently incubated for 30 minutes on ice. For a positive control, a commercial anti-mouse MSR1 (Sino Biological, Cat #50129-R004) antibody was used, while a rabbit IgG antibody (Thermo Scientific, Cat #26102) was used as a negative control. […] Cells were subsequently washed and fixed using a 50% solution of Cytofix (BD Biosciences, Cat #554655) diluted in PBS. […] The signal to noise (S/N) was determined by calculating the ratio of the anti-MSR1 antibodies or the control antibodies MFI to the unstained sample MFI (Table 11).
In general terms: Flow cytometry measures light scatter and fluorescence of single cells or particles in a stream.

Assay [2] has as its target T1, His9-hMSR1 (human MSR1 extracellular domain) (Homo sapiens, UniProt P21757).
T1 construct: human MSR1 extracellular domain expressed with a N-terminal nonahistidine tag; His9 (nonahistidine) (N); purchased R&D Systems 2708-MS
T1 sequence (P21757 77-451 limits assumed): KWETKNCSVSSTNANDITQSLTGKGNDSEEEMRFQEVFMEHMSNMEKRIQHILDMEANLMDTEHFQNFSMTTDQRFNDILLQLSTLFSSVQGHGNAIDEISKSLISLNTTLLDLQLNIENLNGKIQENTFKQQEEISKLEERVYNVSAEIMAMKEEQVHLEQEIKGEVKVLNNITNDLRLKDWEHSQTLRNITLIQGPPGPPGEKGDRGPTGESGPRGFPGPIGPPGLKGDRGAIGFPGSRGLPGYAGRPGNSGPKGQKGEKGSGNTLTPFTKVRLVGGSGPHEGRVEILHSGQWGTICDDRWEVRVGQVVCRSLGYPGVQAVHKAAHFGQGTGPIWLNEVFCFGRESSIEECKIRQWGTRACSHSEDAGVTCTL
Description: Biacore T200 surface plasmon resonance binding kinetics of anti-MSR1 antibody-drug conjugates and parental antibodies. The following applies: 25° C.; for ka: Table 19, antibody-LXR ADCs and unconjugated antibodies; for kd: Table 19, * = no dissociation observed, kd manually fixed at 1.00E−05. The protocol:
The MSR1 antibodies disclosed herein were conjugated to various liver X receptor (LXR) payloads or various steroid payloads. This example describes how equilibrium dissociation constant (KD) values for human MSR1 reagents binding to human anti-MSR1 antibody-drug conjugates and their corresponding unconjugated parental antibodies were determined using a real-time surface plasmon resonance-based Biacore T200 biosensor.
All binding studies were performed in 10 mM HEPES, 300 mM NaCl, 3 mM EDTA, and 0.05% v/v Surfactant Tween-20, pH 7.4 (HBS-ET) running buffer at 25° C. The Biacore CM4 sensor chip surface was first derivatized by amine coupling with the goat anti-human Fcγ specific polyclonal antibody (Jackson ImmunoResearch Laboratories, Cat #BR-1008-39) to capture anti-MSR1 monoclonal antibodies. Binding studies were performed on human MSR1 extracellular domain expressed with a N-terminal nonahistidine tag (His9-hMSR1; R&D Systems, Cat #2708-MS).
The association rate (ka) and dissociation rate (kd) were determined by fitting the real-time binding sensorgrams to a 1:1 binding model with mass transport limitation using Scrubber 2.0c curve-fitting software. Binding dissociation equilibrium constant (KD) and dissociative half-life (t½) were calculated from the kinetic rates as: […]
Binding kinetics parameters for His9-hMSR1 binding to different anti-MSR1 antibody-LXR ADCs and their unconjugated parental antibodies at 25° C. are shown in Table 19. “LP1” represents a linker-payload for which the payload structure is provided in Example 11.
The binding studies were repeated with anti-MSR1 antibody H1H21234-N297Q and steroid linker payloads (LPs). “LP3” represents a linker-payload for which the structure is provided in Example 23, and “LP13” represents a linker-payload for which the structure is provided in Example 24.
Background: SPR reads the build-up and loss of mass on a sensor chip optically.

Assay [3] has as its target HMM-mfMSR1 (monkey MSR1 extracellular domain). Description: Biacore surface plasmon resonance binding kinetics of anti-MSR1 mAbs, antibody-capture format. The following applies: analyte HMM-mfMSR1, NB = no binding observed; for kd: * = no dissociation observed, kd manually fixed at 1.00E−05; for ka: antibody-capture format. In a few lines: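 Captured anti-MSR1 antibodies were run against MSR1 reagents by SPR in HBS-ET (pH 7.4) at 25 °C and 37 °C. ka and kd came from fitting sensorgrams to a 1:1 model with mass-transport limitation. KD and t½ were calculated from these rates.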

HMM-mfMSR1 (monkey MSR1 extracellular domain), sequence (as listed by the source): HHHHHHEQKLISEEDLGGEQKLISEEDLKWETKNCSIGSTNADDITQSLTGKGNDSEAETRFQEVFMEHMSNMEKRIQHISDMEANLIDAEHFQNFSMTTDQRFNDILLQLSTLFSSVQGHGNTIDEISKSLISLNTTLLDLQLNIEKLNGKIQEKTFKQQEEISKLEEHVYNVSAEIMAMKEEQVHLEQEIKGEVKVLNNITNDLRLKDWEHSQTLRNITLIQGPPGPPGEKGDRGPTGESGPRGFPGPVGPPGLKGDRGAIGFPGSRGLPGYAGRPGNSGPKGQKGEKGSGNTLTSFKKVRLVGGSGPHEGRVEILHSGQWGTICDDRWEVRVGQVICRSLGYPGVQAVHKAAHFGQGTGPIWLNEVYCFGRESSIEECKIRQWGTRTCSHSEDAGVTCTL

B1: H1H27734P-N297Q: one of "Twelve anti-MSR1 antibodies"; "made with an N297Q single point mutation in human Fcγ portion" (antibody, V domains shown)
VH: EVQLVESRGGLVQPGGSLRLSCAASGFTFSSYAMSWVRQAPGKGLEWVSAISGSGGSTFYADSVKGRFTISRDNSKNTVYLQMNSLRAEDTAVYYCAKALVLRFLEWLGDYWGQGTLVTVSS
VL: DIQMTQSPSTLSASVGDRVTITCRASQSISSWLAWFQQKPGKAPKLLIYKASSLESGVPSRFSGSGSGTEFTLTISSLQPDDFATYYCQQYKSYWTFGQGTKVEIKR
Consider B1, for which the “B16F10.9 MFI” value in assay [1] is listed as 4505. For the same molecule, the ka in assay [2] was 77200 M⁻¹ s⁻¹; in assay [3] (25° C.) it was 423000 M⁻¹ s⁻¹; in assay [3] (37° C.) it was 949000 M⁻¹ s⁻¹. The kd in assay [2] stood at 0.000596 s⁻¹; in assay [3] (25° C.), 0.00291 s⁻¹; in assay [3] (37° C.), 0.0032 s⁻¹.

B2: H1H27731P-N297Q: one of "Twelve anti-MSR1 antibodies"; "made with an N297Q single point mutation in human Fcγ portion" (antibody, V domains shown)
VH: QLQLQESGPGLVKPSETLSLTCTVSGGSISRISYYWGWIRQPPGKGLEWIGSIYDSGSTYYNPSLKSRVTISIDTSKNQFSLKLSSVTAADTAVYYCVRYSSSSAFAFDYWGQGTLVTVSS
VL: DIQMTQSPSSVSASVGDRVTITCRASQGISSWLAWYQQKPGKAPKLLIYAASSLQSGVPSRFSGSGSGTDFTLTISSLQPEDFATYYCQQANSFPFTFGPGTKVDIKR
Take B2: the “B16F10.9 MFI” value in assay [1] is 3688. In addition, the ka in assay [2] was 117000 M⁻¹ s⁻¹; in assay [3] (25° C.), 98200 M⁻¹ s⁻¹; in assay [3] (37° C.) it was 278000 M⁻¹ s⁻¹. Also, the kd in assay [2] is 1e-05 s⁻¹; in assay [3] (25° C.), 4.69e-05 s⁻¹; in assay [3] (37° C.), 0.000187 s⁻¹.

B3: H1H27754P-N297Q: one of "Twelve anti-MSR1 antibodies"; "made with an N297Q single point mutation in human Fcγ portion" (antibody, V domains shown)
VH: EVQLVESGGGLVQPGGSLRLSCAASGFTFRTYAMTWVRQAPGKGLDWVSAITGDGGNTYYADSVKGRFTISRDNSKNTLYLQMNSLRAEDTAIYYCAKDQRFSFALYYFDYWGQGTLVTVSS
VL: DIQMTQSPSSVSASVGDRVTITCRASQGISSWLAWYQQKPGNAPKLLIYAAFSLQSGVPSRFSGSGSGTDFTLTISSLQPEDFATYYCQQANNFPWTFGQGTKVEIKR
Turning to B3, the “B16F10.9 MFI” value in assay [1] is listed as 4091. For the same molecule, the values for the ka in assay [2], in assay [3] (25° C.) and in assay [3] (37° C.) were 200000 M⁻¹ s⁻¹, 235000 M⁻¹ s⁻¹ and 701000 M⁻¹ s⁻¹, respectively. The kd in assay [2] was 1.00E−05* s^−1; in assay [3] (25° C.) it was 1.76e-05 s⁻¹; in assay [3] (37° C.), 3.53e-05 s⁻¹.

B4: H1H27747P-N297Q (antibody, V domains shown)
VH: QVQLVESGGAVVQPGRSLRLSCAASGFTFSYYGMHWVRQAPGKGLEWVAVISYDGSKKYYADSVKGRFTISRDNSKNTLYLQMNSLRAEDTAVYYCAKDLTVDFYYGMDVWGQGTTVTVSS
VL: DIQMTQSPSSVSASVGDRVTITCRASQGISSWLAWYQQKPGKAPKLLIYATSSLQSGAPSRFSGSGSGTDFTLTISSLQPEDFATYFCQQANSFPYTFGQGTKLEIKR
Take B4: the “B16F10.9 MFI” value in assay [1] stood at 3875. The figures for the ka in assay [2], in assay [3] (25° C.) and in assay [3] (37° C.) were 117000 M⁻¹ s⁻¹, 231000 M⁻¹ s⁻¹ and 657000 M⁻¹ s⁻¹, respectively. Besides, the values for the kd in assay [2], in assay [3] (25° C.) and in assay [3] (37° C.) were 0.000262 s⁻¹, 0.000874 s⁻¹ and 0.00228 s⁻¹, respectively.

B5: H1H27739P-N297Q: anti-MSR1 antibody "made with an N297Q single point mutation in human Fcγ portion" (antibody, V domains shown)
VH: EVQLVESGGGLVQPGGSLRLSCTASGFTFSSYAMSWVRQAPGKGLEWVSAISGTGSSTYFTDSVKGRFAISRDNSKNTLYLQMNSLRAEDTAVYYCAKDGEWLSTVTLFDYWGQGTLVTVSS
VL: EIVMTQSPATLSVSPGERATLSCRASQSVSSNLAWYQQKPGQAPRLLIYGASTRATGIPARFSGSGSGTDFTLTISSLQSEDFALYYCQQYFIWPPHPTFGPGTKVDIKR
In the case of B5, in assay [1], the “B16F10.9 MFI” value was found to be 3580. In addition, the ka in assay [2] was found to be 119000 M⁻¹ s⁻¹; in assay [3] (25° C.) it was 352000 M⁻¹ s⁻¹; in assay [3] (37° C.), 2.25e+06 M⁻¹ s⁻¹. Also, the results for the kd in assay [2], in assay [3] (25° C.) and in assay [3] (37° C.) were 0.000555 s⁻¹, 0.000144 s⁻¹ and 0.000842 s⁻¹, respectively.

B6: H1H27729P-N297Q: anti-MSR1 antibody "made with an N297Q single point mutation in human Fcγ portion" (antibody, V domains shown)
VH: QVQLVESGGGLVKPGGSLRLSCAASGFIFSDYYMSWIRQAPGKGLEWVSYISSSGTTIYGDSVKGRFTMSRDNAKNSLYLQMNSLRAEDTAVYYCARNYALFDYWGQGTLVTVSS
VL: DIQMTQSPSSLSASVGDRVTITCQASQDISKYLNWYQQKPGKAPKLLIYYTSNLETGVPSRFSGSGSGTDFTFTISSLQPEDIATYYCHQSDYLPFTFGPGTKVDIKR
Regarding B6, the “B16F10.9 MFI” value in assay [1] is reported as 3459. Also, the ka in assay [2] amounted to 105000 M⁻¹ s⁻¹; in assay [3] (25° C.), 269000 M⁻¹ s⁻¹; in assay [3] (37° C.), 407000 M⁻¹ s⁻¹. In addition, the kd came to 0.000906 s⁻¹ in assay [2], 0.00212 s⁻¹ in assay [3] (25° C.) and 0.00349 s⁻¹ in assay [3] (37° C.).

For the origin of these results see US12497460B2, “Anti-MSR1 antibodies and methods of use thereof” (REGENERON PHARMACEUTICALS, INC., priority 2018, dated 2025).
